Experiments:
[1] = target: 肺炎支原体天然抗原(购自Microbix) (Mycoplasma pneumoniae); test: indirect ELISA on coated antigen (2 ug/ml), antibody 0.46 ng/ml
[2] = target: 肺炎支原体天然抗原(购自Microbix) (Mycoplasma pneumoniae); test: indirect ELISA on coated antigen (2 ug/ml), antibody 0.15 ng/ml
[3] = target: 肺炎支原体天然抗原(购自Microbix) (Mycoplasma pneumoniae); test: indirect ELISA on coated antigen (2 ug/ml), antibody 12.35 ng/ml
[4] = target: 肺炎支原体天然抗原(购自Microbix) (Mycoplasma pneumoniae); test: indirect ELISA on coated antigen (2 ug/ml), antibody 1.37 ng/ml
[5] = target: 肺炎支原体天然抗原(购自Microbix) (Mycoplasma pneumoniae); test: indirect ELISA on coated antigen (2 ug/ml), antibody 0 ng/ml (blank well)
[6] = target: 肺炎支原体天然抗原(购自Microbix) (Mycoplasma pneumoniae); test: indirect ELISA on coated antigen (2 ug/ml), antibody 4.12 ng/ml

| Molecule | OD值 (450nm, 参考630nm) [1] [OD] | OD值 (450nm, 参考630nm) [2] [OD] | OD值 (450nm, 参考630nm) [3] [OD] | OD值 (450nm, 参考630nm) [4] [OD] | OD值 (450nm, 参考630nm) [5] [OD] | OD值 (450nm, 参考630nm) [6] [OD] |
| --- | --- | --- | --- | --- | --- | --- |
| 对照 (antibody) | 0.111 | 0.068 | 1.21 | 0.208 | 0.015 | 0.499 |
| Anti-MP-11F5mut1 (antibody, mouse IgG1, kappa, V domains shown) VH: QVQLQQSGPELVKPGALVKISCKASGYTFTSFDINWVKQRPGQGLEWIGYIYPGDGSTKYNEKFKGKATLTADKSSSTAYMQFSSLTSENSAVYFCTRKGGWGAGHSAMDYWGQGTSVTVSS VL: DIQMTQTTSSLSASLGDRVTISCRASQAIGNYLNWYQQRPDGTVKLLIYYTSRKNSGAPSRFSGSGSGTDYSITISNLDQEDIATYFCQQGYTTPYTFGGGTKLEIKR | 0.201 | 0.156 | 1.89 | 0.295 | 0.038 | 0.815 |
| Anti-MP-11F5mut7 (antibody, mouse IgG1, kappa, V domains shown) VH: QVQLQQSGPELVKPGALVKISCKASGYTFTSFDINWVKQRPGQGLEWIGYIYPGDGSTKYNEKFKGKATLTADKSSSTAYMQFSSLTSENSAVYFCTRKGGWGAGHSAMDYWGQGTSVTVSS VL: DIQMTQTTSSLSASLGDRVTISCRASQAISNYINWYQQRPDGTVKLLIYYTSRKNSGAPSRFSGSGSGTDYSLTISNIDQEDIATYFCQQGYTTPYTFGGGTKLEIKR | 0.4 | 0.365 | 1.91 | 0.643 | 0.032 | 1.51 |
| Anti-MP-11F5mut5 (antibody, mouse IgG1, kappa, V domains shown) VH: QVQLQQSGPELVKPGALVKISCKASGYTFTSFDINWVKQRPGQGLEWIGYIYPGDGSTKYNEKFKGKATLTADKSSSTAYMQFSSLTSENSAVYFCTRKGGWGAGHSAMDYWGQGTSVTVSS VL: DIQMTQTTSSLSASLGDRVTISCRASQAISNYLNWYQQRPDGTVKLLIYYTSRKNSGAPSRFSGSGSGTDYSLTISNIDQEDIATYFCQQGYTTPYTFGGGTKLEIKR | 0.241 | 0.163 | 2.02 | 0.316 | 0.038 | 0.837 |
| Anti-MP-11F5mut4 (antibody, mouse IgG1, kappa, V domains shown) VH: QVQLQQSGPELVKPGALVKISCKASGYTFTSFDINWVKQRPGQGLEWIGYIYPGDGSTKYNEKFKGKATLTADKSSSTAYMQFSSLTSENSAVYFCTRKGGWGAGHSAMDYWGQGTSVTVSS VL: DIQMTQTTSSLSASLGDRVTISCRASQAISNYINWYQQRPDGTVKLLIYYTSRKNSGAPSRFSGSGSGTDYSLTISNLDQEDIATYFCQQGYTTPYTFGGGTKLEIKR | 0.49 | 0.374 | 1.96 | 1.26 | 0.042 | 1.92 |
| Anti-MP-11F5mut6 (antibody, mouse IgG1, kappa, V domains shown) VH: QVQLQQSGPELVKPGALVKISCKASGYTFTSFDINWVKQRPGQGLEWIGYIYPGDGSTKYNEKFKGKATLTADKSSSTAYMQFSSLTSEDSAVYFCTRKGGWGAGHSAMDYWGQGTSVTVSS VL: DIQMTQTTSSLSASLGDRVTISCRASQAISNYINWYQQRPDGTVKLLIYYTSRKNSGAPSRFSGSGSGTDYSLTISNLDQEDIATYFCQQGYTTPYTFGGGTKLEIKR | 0.276 | 0.174 | 1.92 | 0.445 | 0.063 | 0.85 |
| Anti-MP-11F5mut8 (antibody, mouse IgG1, kappa, V domains shown) VH: QVQLQQSGPELVKPGALVKISCKASGYTFTSFDINWVKQRPGQGLEWIGYIYPGDGSTKYNEKFKGKATLTADKSSSTAYMQFSSLTSEDSAVYFCTRKGGWGAGHSAMDYWGQGTSVTVSS VL: DIQMTQTTSSLSASLGDRVTISCRASQAISNYINWYQQRPDGTVKLLIYYTSRKNSGAPSRFSGSGSGTDYSLTISNIDQEDIATYFCQQGYTTPYTFGGGTKLEIKR | 0.56 | 0.489 | 1.93 | 1.27 | 0.034 | 1.64 |

Source: patent CN116693678A
